Consider seven molecules from patent US20250223342A1 (ARGENX, published 2025).

Assay [1] has as its target T1, human serum albumin (human, UniProt P02768 25-609).
T1 construct: also called HSA
The assay can be described thus: SPR (Biacore 8K+, single cycle kinetics), HSA on CM5 chip. A general note: Surface plasmon resonance follows binding to a sensor surface in real time, without labels.

Assay [2] concerns the target T1, human serum albumin. Kind of assay: SPR (Biacore 8K+, single cycle kinetics), HSA on CM5 chip, HBS-EP+ pH 7.4.
The target in assay [3] is T1, human serum albumin. The assay can be described thus: SPR (Biacore 8K+, single cycle kinetics), HSA on CM5 chip, citrate buffer pH 5.5.
Assay [4] has as its target T1, human serum albumin. The assay can be described thus: SPR (Biacore), VHH clone, pH 7.4.
For assay [5], the target named is T2, mouse serum albumin (mouse, UniProt P07724 25-608).
T2 construct: also called MSA; mouse albumin
The assay can be described thus: species reactivity, screening by ELISA and Biacore. (In general: An ELISA detects its analyte on a solid surface through an enzyme-linked reagent.)

In assay [6] the target is T3, cynomolgus monkey serum albumin (cynomolgus monkey, UniProt A2V9Z4 25-608).
T3 construct: also called cyno albumin; CSA
Kind of assay: species reactivity, screening by ELISA and Biacore.

Assay [7] concerns the target T1, human serum albumin. The assay can be described thus: SPR (Biacore), VHH clone, pH 5.5.
Assay [8] deals with T1, human serum albumin. The assay can be described thus: SPR (Biacore), off-rate pH 7.4 over pH 5.5.
The target in assay [9] is T3, cynomolgus monkey serum albumin. Kind of assay: SPR (Biacore 3000), cyno albumin on chip, Fc-ABDEG fusion, pH 7.4.
Assay [10] addresses T1, human serum albumin. Kind of assay: SPR (Biacore 3000), HSA on chip, Fc-ABDEG fusion, pH 7.4.
Assay [11] concerns the target T1, human serum albumin. The assay can be described thus: SPR (Biacore 3000), HSA on chip, Fc-ABDEG fusion, pH 5.5.
Assay [12] has as its target T1, human serum albumin. The assay is described as above. This is another data set of the same source.
Assay [13] concerns the target T1, human serum albumin. The assay can be described thus: SPR (Biacore 3000), HSA on chip, Fc-ABDEG fusion, pH 7.4. This is another data set of the same source.
Assay [14] concerns the target T3, cynomolgus monkey serum albumin. Kind of assay: SPR (Biacore 3000), cyno albumin on chip, Fc-ABDEG fusion, pH 5.5.
Assay [15] concerns the target T1, human serum albumin. Kind of assay: SPR (Biacore 3000), HSA on chip, Fc-ABDEG fusion, ratio of R0.
Assay [16] has as its target T3, cynomolgus monkey serum albumin. Kind of assay: SPR (Biacore 3000), cyno albumin on chip, Fc-ABDEG fusion, ratio of R0.
Assay [17] concerns the target T1, human serum albumin. The assay can be described thus: SPR (Biacore 3000), HSA on chip, Fc-ABDEG fusion, ratio of R0. This is another data set of the same source.
Assay [18] concerns the target T4, isolated DII of serum albumin (UniProt P02768 211-403, limits assumed).
T4 construct: domain: DII
The assay can be described thus: DII binder column of the clone screening.

Like-named read-outs stand apart in the source and are kept apart here.

What is called Kd is the constant that tells how readily two partners part at equilibrium. A word on the koff: it is the rate constant with which the complex falls apart.

In the case of “Motavizumab-Fab fragment with Alb23 fused C-terminally to the light chain using a 20GS linker”, in [1], the KD ratio (pH 7.4 / pH 5.5) was found to be 5.28. The figures for the dissociation constant (Kd) in [2] and in assay [3] were 65 nM and 12.3 nM, respectively.

B1: Motavizumab-Fab fragment fused with 2H11 C-terminally to the light chain using a 20GS linker (protein, part only; not given: motavizumab Fab and linker, not shown: another chain or arm of the molecule; small tags and cut ends)
VHH: ELQVVESGGGLVQAGGSLRLSCAASGRTFRSNTMGWFRQAPGKEREFVAAITWSGGTTYYADSVKGRFAISGDNAKNTVYLQMNSLKPEDTAVYYCAAEGPKWEPWNGIYHPADFGSWGQGTQVTVSS
B1: the KD ratio (pH 7.4 / pH 5.5) in assay [1] was 92.6. Moreover, the values for the Kd in [2] and in assay [3] were 264 nM and 2.85 nM, respectively.

B2: 9F02 (VHH)
VHH: EVQLVESGGGLVQAGGSLRLSCTASRRAFIGYAMGWFRQAPGKEREFVAAISWFAGDTTDYADSVKGRFTISRDNAKNTVYLQMNGLKPEDTAVYVCAASSARPMSGRSDEYHYWGQGTQVTVSS
Turning to B2, the koff in [4] is 0.00013 s⁻¹; in assay [7], 7.8e-05 s⁻¹. Further, the binding result in [5] and in assay [6] was “binds” in each case. This molecule showed a Kd in assay [7] of 0.575 nM. For the same molecule, the “Ratio Kd” value in assay [8] is 1.6.

B3: 9E10 (VHH)
VHH: QLQVVESGGGLVQAGGSLRLSCTTSGRAFIGYAMGWFRQAPGKEREFVAAISWFAGDTTDYANSVKGRFTISRDNAKNTVYLQMNSLKPEDTAVYVCAASSARPLSSRSDEYHYWGQGTQVTVSS
Consider B3, for which the koff in assay [4] amounted to 0.00412 s⁻¹; in assay [7] it was 0.00246 s⁻¹. For the same molecule, the binding result in [5] and in assay [6] was “binds” in each case. In addition, binding in assay [7] was put at a Kd of 15.4 nM. Besides, the “Ratio Kd” value in [8] is 1.7.

B4: 11C03 parental fused at the C-terminus of Fc-ABDEG (Fc fusion, not shown: a dimerising Fc or GST; small tags and cut ends)
chain: QLQVVESGGGLVQAGGSLRLSCAASERTFVAYPMGWFRQAPEKEREFVAGISWFAGATTDYADSVEGRFTISRDNAKNTAYLQMNNLKPEDTAVYYCAISHQLPGGRPGRDMDSYSYWGHGTQVTVSS
In the case of B4, the “R0 pH 7.4” value in [9] was 33 RU; in assay [10], 42.2 RU; in assay [13], 57 RU. Besides, the “R0 pH 5.5” value in [11] came to 229 RU; in assay [12], 177 RU; in assay [14] it was 220 RU. The figures for the “R0 5.5/7.4” value in [15], in assay [16] and in assay [17] were 4.22, 6.7 and 4, respectively.

B5: 11C03-v6 fused at the C-terminus of Fc-ABDEG (Fc fusion, not shown: a dimerising Fc or GST; small tags and cut ends)
chain: QLQVVESGGGLVQAGGSLRLSCAASERTFVAYPMGWFRQAPEKEREFVAGISWFAGATTDYADSVEGRFTISRDNAKNTAYLQMNNLKPEDTAVYYCAISHQLPAGRPGRDMDSYSYWGHGTQVTVSS
On to B5, for which, in assay [10], the “R0 pH 7.4” value came out at 12.1 RU. The “R0 pH 5.5” value in assay [12] was determined as 39.3 RU. Moreover, the “R0 5.5/7.4” value in assay [15] came to 3.26.

B6: 12G03 (VHH)
VHH: QVQLVESGGGLVQAGGSLRLSCAASERAFSHSNMAWFRQAPGKEREFVAHIHWRGSTTYLDSVKGRFTISRDNAKNTVYLQMNGLRLEDTAVYYCAADSARRILVTVSTSYDYWGQGTQVTVSS
Take B6: the binding result in assay [18] is recorded as “no binding”; in assay [5], “binds”; in [6], “binds”. In addition, the koff in [4] worked out at 0.00522 s⁻¹; in [7], 0.00126 s⁻¹. This molecule also displayed a Kd in assay [7] of 8.14 nM. Further, the “Ratio Kd” value in assay [8] amounted to 4.1.
